Results: patent publication US20040253247A1 (Genentech, published 2004)
Bridges are numbered along the chain shown (N, C = ends). Where no end group is shown, it is not given here. code n = not defined here

Experiments:
rat albumin [1] = biological target: T1, rat albumin (rat, UniProt P02770 25-608); assay: SA08b competition binding assay with a rat albumin coat
Protocol: (§1) Plates were blocked using Blocker Casein (Pierce Chemical, Rockford, Ill.) for 1 hr, at 25° C. […] The amount of HRP bound was measured using ABTS/H₂O₂ substrate and monitoring the change at 405 nm.

rabbit albumin [2] = biological target: T2, rabbit albumin (rabbit, UniProt P49065 25-608); assay: SA08b binding assay: competition with biotinylated SA08b for immobilized albumin
Protocol: as §1

rat albumin [3] = biological target: T1, rat albumin; assay: as above
Protocol: as §1

mouse albumin [4] = biological target: T3, mouse albumin (mouse, UniProt P07724 25-608); assay: as above
Protocol: as §1

rabbit albumin [5] = biological target: T2, rabbit albumin; assay: SA08b competition binding assay with a rabbit albumin coat
Protocol: as §1

mouse albumin [6] = biological target: T3, mouse albumin; assay: SA08b competition binding assay with a mouse albumin coat
Protocol: as §1

[7] = biological target: T4, albumin (species not stated, D3H44 fusion assays); assay: SA08b competition binding assay (competitor: biotinylated SA08b), albumin species not given
T4 construct: also called immobilized albumin
Protocol: as §1

rabbit albumin [8] = biological target: T2, rabbit albumin; assay: phage ELISA, photograph of the plate
rat albumin [9] = biological target: T1, rat albumin; assay: phage ELISA, photograph of the plate
ovalbumin = biological target: T5, ovalbumin (UniProt P01012 2-386); assay: phage ELISA, photograph of the plate
T5 sequence (looked up): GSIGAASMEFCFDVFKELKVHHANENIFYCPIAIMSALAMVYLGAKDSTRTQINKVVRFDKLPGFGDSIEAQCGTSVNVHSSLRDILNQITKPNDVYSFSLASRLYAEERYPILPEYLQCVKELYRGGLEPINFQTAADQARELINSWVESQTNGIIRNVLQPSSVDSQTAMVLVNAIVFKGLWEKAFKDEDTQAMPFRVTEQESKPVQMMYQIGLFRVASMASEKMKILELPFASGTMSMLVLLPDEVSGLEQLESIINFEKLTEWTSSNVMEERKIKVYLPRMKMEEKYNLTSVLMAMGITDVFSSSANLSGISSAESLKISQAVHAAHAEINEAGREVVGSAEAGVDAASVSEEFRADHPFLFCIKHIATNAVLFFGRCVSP

mouse albumin [10] = biological target: T3, mouse albumin; assay: phage ELISA, photograph of the plate
IgG-Fc [11] = biological target: T6, IgG-Fc (UniProt P01857-1 108-330 = IgG part, limits assumed); assay: competition ELISA against immobilized Protein A Z-domain for biotinylated IgG-Fc; IC50 extrapolated to zero IgG-Fc
T6 construct: domain: IgG-Fc; also called biotinylated-IgG-Fc; biotin-IgG-Fc
Protocol: Competition ELISAs were performed in a manner similar to the method described in H. B. Lowman, et al., supra. […] Plates were then washed and developed as described using avidin/HRP conjugate. Inhibition curves were then computed for each concentration of biotin-IgG-Fc, and then the curve of half-maximal inhibition, “IC₅₀”, was extrapolated to zero biotin-IgG-Fc concentration in order to obtain a Kᵢ.

IgG-Fc [12] = biological target: T6, IgG-Fc; assay: synthetic peptide; method of the Kd not named
IgG-Fc [13] = biological target: T6, IgG-Fc; assay: synthetic peptide; competition assay not given

T1 sequence (P02770 25-608 limits assumed): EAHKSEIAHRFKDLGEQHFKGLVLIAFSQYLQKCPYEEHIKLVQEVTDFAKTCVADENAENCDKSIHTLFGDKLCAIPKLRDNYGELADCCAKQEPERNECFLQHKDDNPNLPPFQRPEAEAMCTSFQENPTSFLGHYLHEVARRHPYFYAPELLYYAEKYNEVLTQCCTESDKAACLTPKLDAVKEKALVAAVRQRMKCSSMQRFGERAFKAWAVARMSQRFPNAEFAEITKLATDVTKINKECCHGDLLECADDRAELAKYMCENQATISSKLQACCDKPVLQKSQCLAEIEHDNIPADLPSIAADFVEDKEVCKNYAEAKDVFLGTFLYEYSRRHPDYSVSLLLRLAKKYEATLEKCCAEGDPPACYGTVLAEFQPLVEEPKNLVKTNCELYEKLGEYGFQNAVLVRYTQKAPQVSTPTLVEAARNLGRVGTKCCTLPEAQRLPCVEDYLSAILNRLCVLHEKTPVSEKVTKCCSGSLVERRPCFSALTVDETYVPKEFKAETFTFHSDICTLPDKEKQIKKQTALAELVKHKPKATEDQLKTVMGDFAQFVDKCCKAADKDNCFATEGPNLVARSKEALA
T2 sequence (P49065 25-608 limits assumed): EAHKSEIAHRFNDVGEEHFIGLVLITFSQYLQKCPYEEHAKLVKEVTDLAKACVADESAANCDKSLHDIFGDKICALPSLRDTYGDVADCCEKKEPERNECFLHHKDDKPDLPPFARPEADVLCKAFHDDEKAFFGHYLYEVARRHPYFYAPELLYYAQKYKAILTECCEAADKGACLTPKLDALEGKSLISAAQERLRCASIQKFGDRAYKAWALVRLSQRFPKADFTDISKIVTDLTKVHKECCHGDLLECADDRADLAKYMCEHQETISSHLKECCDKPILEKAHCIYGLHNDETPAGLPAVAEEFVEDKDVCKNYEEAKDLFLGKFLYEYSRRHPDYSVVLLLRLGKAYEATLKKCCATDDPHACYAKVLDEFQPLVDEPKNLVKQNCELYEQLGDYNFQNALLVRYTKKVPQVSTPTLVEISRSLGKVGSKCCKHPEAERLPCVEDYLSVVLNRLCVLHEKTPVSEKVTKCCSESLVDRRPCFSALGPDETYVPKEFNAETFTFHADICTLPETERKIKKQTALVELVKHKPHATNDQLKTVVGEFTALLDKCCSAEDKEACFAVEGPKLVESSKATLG
T3 sequence (P07724 25-608 limits assumed): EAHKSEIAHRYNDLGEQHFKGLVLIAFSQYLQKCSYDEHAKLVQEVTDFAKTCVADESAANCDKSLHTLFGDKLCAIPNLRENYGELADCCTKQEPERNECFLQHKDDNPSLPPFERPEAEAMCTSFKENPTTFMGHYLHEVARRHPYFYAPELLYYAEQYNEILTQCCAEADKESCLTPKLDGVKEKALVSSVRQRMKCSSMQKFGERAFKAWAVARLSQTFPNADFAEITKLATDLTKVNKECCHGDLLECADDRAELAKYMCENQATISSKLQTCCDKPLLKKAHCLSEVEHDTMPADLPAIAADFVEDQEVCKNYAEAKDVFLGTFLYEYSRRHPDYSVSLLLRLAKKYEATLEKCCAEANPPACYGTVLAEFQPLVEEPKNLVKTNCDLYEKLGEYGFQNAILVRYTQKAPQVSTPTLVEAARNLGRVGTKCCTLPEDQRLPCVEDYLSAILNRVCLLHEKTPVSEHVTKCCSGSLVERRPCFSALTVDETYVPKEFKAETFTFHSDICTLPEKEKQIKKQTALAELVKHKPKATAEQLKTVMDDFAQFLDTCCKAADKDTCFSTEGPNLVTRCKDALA
T4 sequence (P49065 25-608): as the sequence (P49065 25-608 limits assumed) above

B1: SA06 (peptide)
peptide: QRLMEDICLPRWGCLWEDDF-{code n}
modifications: disulfide 8-14 (inferred); not fully specified; reading uncertain
notes: synthesized peptide; also called Peptide SA06
IC50 (rat albumin [1]): 61 nM | IC50 (rabbit albumin [2]): 128 nM | IC50 (rat albumin [3]): 68 nM | IC50 (mouse albumin [4]): 8 nM | IC50 (rabbit albumin [5]): 174 nM | IC50 (mouse albumin [6]): 8 nM

B2: SA08 (peptide)
peptide: Ac-QGLIGDICLPRWGCLWGDSVK-{code n}
modifications: disulfide 8-14 (inferred); reading uncertain; also: printed as Gln-Gly-Leu-Ile-Gly-Asp-Ile-Cys-Leu-Pro-Arg-Trp-Gly-Cys-Leu-Trp-Gly-Asp-Ser-Val-Lys
notes: synthesized peptide; not biotinylated form of SA08b; also called SA08 peptide
IC50 (read off the curve) [7]: ~10 nM | IC50 (rabbit albumin [2]): 63 nM | IC50 (rat albumin [3]): 68 nM | IC50 (mouse albumin [4]): 10 nM

B3: HA-H74 (peptide)
peptide: EVRSFCTDWPAHYSCTSLQG
notes: phage clone, Library HA
binding result (rabbit albumin [8]): no binding | binding result (rat albumin [9]): no binding | binding result (ovalbumin): no binding | binding result (mouse albumin [10]): no binding

B4: Fc-II peptide KEASCSYWLGELVWCVAGVE (peptide)
peptide: H-KEASCSYWLGELVWCVAGVE-NH2
modifications: disulfide 5-15 (inferred)
notes: Synthetic peptide; disulfide-constrained library origin
Ki (IgG-Fc [11]): 5000 nM

B5: peptide DLADCSWHMGELVWCSRVEG (peptide)
peptide: H-DLADCSWHMGELVWCSRVEG-NH2
modifications: disulfide 5-15 (inferred)
notes: Synthetic peptide
Kd (IgG-Fc [12]): 50 nM

B6: Fc-I peptide ETQRCTWHMGELVWCEREHN (peptide)
peptide: H-ETQRCTWHMGELVWCEREHN-NH2
modifications: disulfide 5-15 (inferred)
notes: as for B4
Ki (IgG-Fc [11]): 5000 nM

B7: peptide WEADCAWHLGELVWCTPMEF (peptide)
peptide: H-WEADCAWHLGELVWCTPMEF-NH2
modifications: disulfide 5-15 (inferred)
notes: Synthetic peptide
IC50 (IgG-Fc [13]): 30 nM
